4 molecules from article PMC11557873 (Nature Communications, 2024) can be followed below.

Changes are numbered by the printed parent chain. Numbers in names are those of the source.

This experiment has as its target T1, hgp130.hFc (human gp130 aa E23-E619 with a hFc tag) (human, UniProt P40189 23-619).
T1 sequence: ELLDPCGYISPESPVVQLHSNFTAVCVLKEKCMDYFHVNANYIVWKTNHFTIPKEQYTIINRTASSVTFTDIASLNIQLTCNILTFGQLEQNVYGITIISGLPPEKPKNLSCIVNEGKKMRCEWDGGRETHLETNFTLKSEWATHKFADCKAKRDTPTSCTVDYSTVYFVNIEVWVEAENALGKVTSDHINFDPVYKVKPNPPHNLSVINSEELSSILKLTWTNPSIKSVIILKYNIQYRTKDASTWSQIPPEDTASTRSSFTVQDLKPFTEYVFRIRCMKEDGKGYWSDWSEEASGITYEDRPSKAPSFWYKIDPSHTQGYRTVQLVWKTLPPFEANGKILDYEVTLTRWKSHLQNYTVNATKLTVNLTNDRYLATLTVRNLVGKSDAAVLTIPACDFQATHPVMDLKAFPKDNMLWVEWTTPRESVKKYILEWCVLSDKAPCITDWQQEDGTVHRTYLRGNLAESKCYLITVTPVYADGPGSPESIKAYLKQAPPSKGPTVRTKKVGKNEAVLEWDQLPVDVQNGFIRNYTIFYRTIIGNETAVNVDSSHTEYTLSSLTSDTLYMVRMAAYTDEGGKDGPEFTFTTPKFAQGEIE
Nature of the experiment: SPR. Background: Surface plasmon resonance follows binding to a sensor surface in real time, without labels.

B1: short form hOSM variant Δ(A26-E34)/C152S (aa Y35-R221) (ligand)
chain: YRVLLGQLQKQTDLMQDTSRLLDPYIRIQGLDVPKLREHCRERPGAFPSEETLRGLGRRGFLQTLNATLGCVLHRLADLEQRLPKAQDLERSGLNIEDLEKLQMARPNILGLRNNIYSMAQLLDNSDTAEPTKAGRGASQPPTPTPASDAFQRKLEGCRFLHGYHRFMHSVGRVFSKWGESPNRSRR
By Kd is commonly meant the free concentration of one partner at which half of the binding sites on the other are occupied at equilibrium, for simple one-to-one binding. High values mean a looser complex, low ones a tighter complex. In turn, B1 came in with a Kd of 40.9 nM.

B2: short form hOSM WT (hOSM_short, aa A26-R221), C-terminal myc-myc-His (ligand)
chain: AAIGSCSKEYRVLLGQLQKQTDLMQDTSRLLDPYIRIQGLDVPKLREHCRERPGAFPSEETLRGLGRRGFLQTLNATLGCVLHRLADLEQRLPKAQDLERSGLNIEDLEKLQMARPNILGLRNNIYCMAQLLDNSDTAEPTKAGRGASQPPTPTPASDAFQRKLEGCRFLHGYHRFMHSVGRVFSKWGESPNRSRR
B2 showed a Kd of 8.58 nM.

B3: short form hOSM mutant V37R (ligand)
chain: B2 chain with V12R
On to B3, for which the binding result was “binds”.

B4: short form hOSM variant C31S/C152S (ligand)
chain: B2 chain with C6S, C127S
Take B4: the Kd amounted to 69 nM.
